Tests used:
NF-κB signaling = experiment: Inhibition of NF-κB signaling by NO donors; type: cell-based; conditions: summary statement
Excerpt: SNAP, SNP (nitroprusside) and NOC-18 inhibit NF-κB signaling.

[1] = system: phospho-IκBα in A375 cells; experiment: Western blot analysis of IκBα phosphorylation; type: cell-based, human; conditions: pre-treatment 100 μM, Apo2L/TRAIL 100 ng/ml
Experimental: Gel Electrophoresis and Immunoblot analyses. Please see FIG. 4. Whole cell lysates were prepared in 1× lysis buffer (50 mM Tris-Cl, pH 8.0, 1% Triton×100, 10% glycerol, 1 mM EDTA, 250 mM NaCl, 1 mM DTT, 1 mM PMSF, 10 μg/ml aprotinin, 10 μg/ml leupeptin, and 10 μg/ml pepstatin) for subsequent immunoblotting studies. The SDS-PAGE was conducted by using the Laemmli buffer system and 12% polyacrylamide gels. Proteins were transferred onto PVDF membranes by the semidry method (Trans Blot SD, BioRad, Hercules, Calif.). Binding of the primary and secondary antibodies was performed according to standard protocols. Membranes were immunoblotted with pAb to caspase-3, caspase-8, XIAP (BD-Pharmingen, San Diego, Calif.), PARP (BioMOL, Plymouth Meeting, Pa.), cIAP-1, FLIP, pIκBα and IκBα (Cell Signaling, Beverly, Mass.) followed by incubation with HRP conjugated secondary antibodies (Pierce, Rockford, Ill.). Immunoreactive bands were visualized by using enhanced chemiluminescence (Perkin Elmer, Boston, Mass.). Equal protein loading was confirmed by reprobing with monoclonal anti-actin antibody (Sigma Chemicals Co, St. Louis, Mo.). All immunoblots in this study were repeated 3 times with reproducible results.
NO-Cbl treatment affected the phosphorylation state of IκBα, the prototypic inhibitor of NF-κB. Western blot analysis was performed to assess levels of phospho-IκBα and IκBα. FIG. 6 is a Western blot analysis of IκB levels and IκBα phosphorylation. IκBα and phospho-IκBα protein levels were determined in A375 whole cell lysates. […] NO-Cbl, NOC-18, and SNAP pre-treatment all inhibited Apo2L/TRAIL-induced IκBα phosphorylation.

[2] = system: NF-κB DNA binding activity; experiment: Electrophoretic mobility shift assay (EMSA) of NF-κB DNA binding activity, A375 cells; type: cell-based, human; conditions: NO donor 100 μM pre-treatment 16 h, Apo2L/TRAIL 100 ng/ml 1 h
Experimental: Electrophoretic mobility shift assay (EMSA). These methods apply generally to FIGS. 5, 9-10 which employ EMSA analysis. In FIG. 5, A375 cells were treated with NO donors (NO-Cbl, NOC-18, SNAP, 100 μM, 16 h), or with Apo2L/TRAIL (100 ng/ml) or TNF-α (20 ng/ml) for 1 h, or with the combination of NO donors (16 h) followed by Apo2L/TRAIL or TNF-α (1 h). Plates were washed twice with ice-cold PBS. Cells were resuspended in cold 1× lysis buffer (20 mM HEPES, 20 mM NaF, 1 mM Na3VO4, 1 mM EDTA, 1 mM DTT, 100 mM NaCl, 10% glycerol and protease inhibitors) and incubated on ice for 30 min followed by centrifugation at 4° C. at 10,000 rpm for 10 min. Supernatants were transferred to fresh tubes and protein concentrations were assessed using the Bradford method (Bio-RAD protein assay, BioRad, Hercules, Calif.). The NF-κB consensus binding sequence (5′[…] 3′) from the IFN-β gene promoter was end-labeled with γ^32P dATP ([…]) using T4 polynucleotide kinase. DNA binding reactions were performed in 20 μl volume containing 10 μg protein, 20 mM HEPES, 10 mM KCl, 0.1% NP-40, 0.5 mM DIT and 10% glycerol. The binding reaction was performed for 20 min at 25° C. Complexes were separated from the free probe on 6% non-denaturing polyacrylamide gels in 0.5×TBE buffer at 200 V for 2 h. Gels were dried and exposed to film.
Inhibition of NF-κB survival signaling by NO-Cbl. Because NF-κB is an important cell survival regulator, we examined the effects of NO-Cbl on NF-κB DNA binding activity. The NF-κB binding sequence from the IFN-β gene promoter was used as a probe to assess DNA binding activity. A375 cells were treated with TNF-α (20 ng/ml), Apo2L/TRAIL (100 ng/ml) or NO-Cbl (100 μM). FIG. 5, illustrates an Electrophoretic Mobility Shift Assay (EMSA) of NF-κB DNA binding activity. Pre-treatment of A375 cells with NO-Cbl inhibited the NF-κB DNA binding activity induced by Apo2L/TRAIL and TNF-α. […] NF-κB-luc transfected A375 cells were pre-treated with NO-Cbl followed by Apo2L/TRAIL or TNF-α. […] Cell lysates were analyzed for NF-κB-luc reporter activity. […]

A375 cells = experiment: TUNEL apoptosis assay; type: cell-based, human; conditions: single agent, 36 h; NO-Cbl 100 μM or Apo2L/TRAIL 100 ng/ml
Experimental: TUNEL assay. Please see FIG. 3. A375 cells were cultured for 36 h and exposed to various treatments (control, NO-Cbl, Apo2L/TRAIL and NO-Cbl+Apo2L/TRAIL. Apoptotic cells were detected by TUNEL (terminal deoxynucleotidyltransferase-mediated dUTP-biotin nick end-labeling) staining using a commercially available kit (APO-BRDU kit, BD-Pharmingen, San Diego, Calif.). Cells were processed according to the manufacturer's recommended protocol. The percentage of FITC-positive cells was analyzed by fluorescent activated cell scanning (FACS, Becton Dickinson, Facsvantage, San Diego, Calif.).
Cell line A375 has a defect in endogenous TRAIL gene induction therefore, additive cellular responses from exogenous TRAIL/Apo2L were avoided. TUNEL assays of A375 cells treated in vitro with NO-Cbl, Apo2L/TRAIL, or the combination were performed. FIG. 3 illustrates a TUNEL apoptosis assay in accordance with the present invention. A375 cells were treated with NO-Cbl, Apo-2L/TRAIL, and the combination. […] The highest levels of apoptosis were observed when cells were pre-treated with NO-Cbl followed by Apo2L/TRAIL treatment. Treatment for 36 h with NO-Cbl (100 μM) or Apo2L/TRAIL (100 ng/ml) induced 6.2% and 5.4% TUNEL-positive cells, respectively.

A375 melanoma xenografts = experiment: Growth of subcutaneous A375 xenografts in nude mice; type: in vivo
Excerpt: In vivo experiments. Please see FIG. 2. The Institutional Animal Care and Use Committee at the Cleveland Clinic Foundation approved all procedures for animal experimentation. Five week-old NCR male athymic nude homozygous (nu/nu) mice (Taconic, Germantown, N.Y.) were inoculated with A375 tumors. Each experimental group contained 4 mice, each mouse bearing two tumors, on opposite flanks. There were four experimental groups (untreated, single agents, and the combination). Cultured tumor cells (4×10^6) were inoculated into flanks in the mid-axillary line. NO-Cbl was given twice daily (50 mg/kg s.c.) and recombinant trimeric Apo2L/TRAIL (50 mg/kg s.c.) was administered every other day, starting on day 2. Tumor volume was measured three times a week using the formula for a prolate spheroid: (4/3) πab^2 where 2a=major axis, 2b=minor axis. Formalin-fixed sections were processed by the Cleveland Clinic Histology Core. Sections were stained with hematoxylin and eosin and evaluated for pathologic changes in a blinded fashion.
Anti-tumor effects of NO-Cbl, Apo2L/TRAIL, and the combination in vivo. To test drug activity in vivo, subcutaneous A375 xenografts were inoculated in nude mice. FIG. 2. illustrates the effect of NO-Cbl, Apo2L/TRAIL and the combination on the growth of A375 melanoma xenografts. NCR male athymic nude (nulnu) mice (n=4 per group) were injected subcutaneously with 4×10^6 A375 cells. Drug treatments began on day two (2) after injection of tumor cells. NO-Cbl was administered twice daily for the duration of the study. Apo2L/TRAIL was administered every other day. The control mice received phosphate buffered saline. The tumor volume was measured three times per week. Data points represent the mean tumor volume (in cubic mm)±SEM. Daily drug treatments began on day 2 following implantation, at which time tumors were both visible and palpable. Untreated control tumors grew unimpeded. After 25 days, the tumors from mice treated with NO-Cbl were 67.4% smaller than the control tumors (p≦0.0002) and tumors from mice treated with Apo2L/TRAIL were 89.4% smaller than the control tumors (p≦0.00001). The tumors from mice treated with the combination of NO-Cbl and Apo2L/TRAIL were 95.7% smaller than the control tumors (p≦0.000005).

normal fibroblasts = experiment: Sulforhodamine B cell growth assay, normal cells; type: cell-based, human
Experimental: (§1) Cell Culture treatments. Cells were maintained in RPMI or DMEM (Mediatech, Herndon, Va.) containing 5% fetal bovine serum (Hyclone, Logan, Utah) and 1% Antibiotic-Antimycotic (GEBCO, Invitrogen Carlsbad, Calif.) as recommended per the American Type Culture Collection media protocol for each cell line. Cells were maintained in 5% CO2 at 37° C. in a humidified tissue culture incubator. Primary non-tumorigenic […] cell lines (DMN-1 and CMN-1), and human foreskin fibroblasts (HFF; CCF, Cleveland, Ohio) were cultured in DMEM-F12 medium supplemented with 10% FBS. Cells were confirmed as mycoplasma free.
(§2) Sulforhodamine B Cell Growth Assay. Cells were harvested with 0.5% trypsin/0.53 mM EDTA, washed with PBS and resuspended in media containing 10% FBS. Cells were plated in 96-well plates in 0.2-ml aliquots. Cells were allowed to adhere to the plate for 4 h and then NO-Cbl was added in different concentrations to the assay plate. A minimum of four were performed for each treatment. After 16 h, various chemotherapeutic agents including cytokines were added at different concentrations. Growth was monitored by the sulforhodamine B (SRB; Sigma Chemical, St. Louis, Mo.) colorimetric assay. After 36 h, the medium was removed, and the cells were fixed with 10% trichloroacetic acid and stained with SRB. Bound dye was eluted from the cells with 10 mM Tris-HCl (pH 10.5) and absorbance was measured at 570 nm using a Lab systems Multiskan RC 96-well plate reader (Lab Systems Multiscan RC, Thermo Lab Systems, Franklin, Mass.). To quantify the growth of the cells, the experimental absorbance values (Aexp) were compared with initial absorbance readings representing the starting cell numbers (Aini). To determine the starting cell number, an additional 96-well plate was seeded with cells and fixed at the beginning of the experiment. After 5 days growth, the untreated control cells and drug treated cells were fixed and stained with SRB. The absorbances derived from the initial plate and from the untreated cells at the end of the growth period (Afin) were defined as 0% and 100% growth, respectively. The percentage control growth (100%×[Aexp−Aini]/[Afin−Aini]) is expressed as a percentage of untreated controls.
(§3) Anti-tumor effects of NO-Cbl, Apo2L/TRAIL, and the combination iii vitro. NO-Cbl enhances the anti-cellular effects of Apo2L/TRAIL against malignant Apo2L/TRAIL-resistant cell lines. First the antiproliferative effects of three melanoma lines A375, WM9, and WM3211 (previously reported to be resistant to Apo2L/TRAIL) were measured. Although Apo2L/TRAIL was used as the chemotherapeutic agents, a wide range of anti-cancer drugs and techniques would be enhanced by the NO based cobalamin compounds due to their effective inhibition of the cell survival mechanism. Such other chemotherapeutic agents are tested in the following examples. […] The SRB antiproliferative assay, used by the National Cancer Institute (NCI) to evaluate new chemotherapeutic agents was used herein. Median effect analysis was used to analyze drug interactions between NO-Cbl and Apo2L/TRAIL. Cells were pre-treated with NO-Cbl for 16 h followed by Apo2L/TRAIL for 24 h.
(§4) The effects of nitrosylcobalamin (NO-Cbl), Apo2L/TRAIL, and the combination on the proliferation of melanoma cell lines A375, WM9, and WM3211 and normal cell lines CMN1, DMN1, and fibroblasts were observed. Cells were treated with NO-Cbl, Apo2L/TRAIL, or pre-treated with NO-Cbl followed by Apo2L/TRAIL for three days, and growth was measured by the colorimetric sulforhodamine B assay. Data points were generated to represent the mean of four replicates±standard error of the mean (SEM). Synergy between NO-Cbl and Apo2L/TRAIL was determined by median effect analysis, (combination index >1 indicates antagonism, =1 indicates additivity, and <1 indicates synergy). The combination index is represented in FIG. 1 and as the combination index observed at the specified concentrations. […]

[3] = system: CMN1 (normal melanocytes); experiment: Sulforhodamine B cell growth assay, normal cells; type: cell-based, human
Experimental: as §1, §2, §3, §4

[4] = system: DMN1 (normal melanocytes); experiment: Sulforhodamine B cell growth assay, normal cells; type: cell-based, human
Experimental: as §1, §2, §3, §4

Molecule	NF-κB signaling (NF-κB signaling)	IκBα phosphorylation induced by Apo2L/TRAIL [1]	NF-κB DNA binding activity induced by Apo2L/TRAIL [2]	TUNEL-positive cells (A375 cells)	tumor regression (A375 melanoma xenografts; A375 xenografts, nude mice)	tumors smaller than the control tumors (A375 melanoma xenografts; after 25 days, NO-Cbl 50 mg/kg s.c. twice daily, Apo2L/TRAIL 50 mg/kg s.c. every other day, from day 2)	antiproliferative effect on normal cells (normal fibroblasts)	antiproliferative effect on normal cells [3]	antiproliferative effect on normal cells [4]
CC(=O)NC(C(=O)O)C(C)(C)SN=O (racemic) [SNAP, S-nitroso-N-acetyl-D,L-penicillamine, reference compound]	inhibit	inhibited	inhibited						
Apo2L/TRAIL: tumor necrosis factor-related apoptosis-inducing ligand; trimeric recombinant human Apo2L/TRAIL (Genentech) (protein, UniProt P50591 1-281, looked up) Tumor necrosis factor ligand …: MAMMEVQGGPSLGQTCVLIVIFTVLLQSLCVAVTYVYFTNELKQMQDKYSKSGIACFLKEDDSYWDPNDEESMNSPCWQVKWQLRQLVRKMILRTSEETISTVQEKQQNISPLVRERGPQRVAAHITGTRGRSNTLSSPNSKNEKALGRKINSWESSRSGHSFLSNLHLRNGELVIHEKGFYYIYSQTYFRFQEEIKENTKNDKQMVQYIYKYTSYPDPILLMKSARNSCWSKDAEYGLYSIYQGGIFELKENDRIFVSVTNEHLIDMDHEASFFGAFLVG				5.4%	Tumor regression was observed	89.4%	completely resistant	completely resistant	completely resistant

— patent US20080138280A1, “Composition and Methods For Inhibiting Cell Survival” (The Cleveland Clinic Foundation, priority 2003, published 2008)
